{"source": "IntAct's records for PubMed 38825040", "molecular_target": "lg3bp_human LGALS3BP (UniProt Q08380)", "sequence (Q08380 whole entry)": "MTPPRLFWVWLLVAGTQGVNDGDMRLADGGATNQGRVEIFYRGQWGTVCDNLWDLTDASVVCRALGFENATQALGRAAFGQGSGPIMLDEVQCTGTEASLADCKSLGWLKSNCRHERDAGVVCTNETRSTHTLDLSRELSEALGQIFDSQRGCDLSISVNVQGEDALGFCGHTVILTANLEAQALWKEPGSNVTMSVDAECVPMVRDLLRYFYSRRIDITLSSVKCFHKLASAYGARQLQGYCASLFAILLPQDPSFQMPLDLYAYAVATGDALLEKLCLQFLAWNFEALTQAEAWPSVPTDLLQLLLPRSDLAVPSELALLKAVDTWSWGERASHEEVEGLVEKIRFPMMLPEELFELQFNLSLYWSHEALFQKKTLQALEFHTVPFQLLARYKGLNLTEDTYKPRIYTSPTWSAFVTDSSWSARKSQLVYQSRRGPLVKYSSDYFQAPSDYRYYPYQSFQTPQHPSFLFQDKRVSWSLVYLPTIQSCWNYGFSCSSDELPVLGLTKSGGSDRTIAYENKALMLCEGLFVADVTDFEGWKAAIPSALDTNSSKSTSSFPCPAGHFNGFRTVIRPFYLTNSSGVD"}
{"substance": "Extracellular sulfatase Sulf-2 (Homo sapiens), Q8IWU5 S583A", "values": [{"measurement": "effect of a mutation on the interaction", "value": "increasing interaction strength"}]}
